In patent publication US20260116991A1 (HAINAN SIMCERE ZAIMING PHARMACEUTICAL, published 2026):
Like-named read-outs stand apart in the source and are kept apart here.

Legend:
[1] = target: T1, monkey GPC3-His protein (monkey); test: SPR, antibody captured on Protein A chip, monkey GPC3-His analyte;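 further: run at 25 °C with 240 s association and up to 600 s dissociation, double-referenced, kinetics fitted to a 1:1 Langmuir binding model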
T1 construct: Bought recombinant protein; also called monkey GPC3 protein

[2] = target: T1, monkey GPC3-His protein; test: ELISA, monkey GPC3-His coated;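 further: Plate-coated antigen at 1 µg/mL, antibody binding 2 h at 37 °C, detected with HRP-labeled secondary antibody and TMB, absorbance at 450 nm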
Procedure: The specific method is described as follows: The antigen protein was diluted with PBS to a final concentration of 1 μg/mL, and the diluent was added to a 96-well ELISA plate at 50 μL/well. The plate was sealed with a plastic film and incubated at 4° C. overnight, washed twice with PBS the next day, and a blocking solution [PBS+2% (w/w) BSA] was added for blocking at room temperature for 2 h. […] After incubation at 37° C. for 2 h, the plate was washed 3 times with PBS. A horseradish peroxidase (HRP)-labeled secondary antibody (purchased from Merck, Cat. No. AP113P) was added for incubation at 37° C. for 1 h, and the plate was washed 5 times with PBS. A TMB substrate was added at 50 μL/well for incubation at room temperature for 10 min, then a stop solution (1.0M HCl) was added at 50 μL/well. An ELISA plate reader (Multimode Plate Reader, EnSight, purchased from Perkin Elmer) was used to read OD_{450 nm} values, with results as shown in Table 4 to Table 6, FIG. 1A, FIG. 1B, and FIG. 1C.

[3] = target: T2, monkey GPC3 on HEK293T-monkey GPC3 cells (monkey); test: FACS on HEK293T-monkey GPC3 cells
T2 construct: whole, on cells

[4] = target: T3, human GPC3-His protein (human, UniProt P51654 25-559); test: SPR, antibody captured on Protein A chip, human GPC3-His analyte;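 further: measured at 25 °C flow cell, human GPC3-His injected at five concentrations up to 200 nM, 240 s association, up to 600 s dissociation, double-referenced, fitted to Langmuir 1:1 model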
T3 construct: also called human GPC3 protein; not shown: His tag

[5] = target: T4, monkey GPC3 on HEK293T-monkey GPC3 cells (monkey); test: FACS on HEK293T-monkey GPC3 cells; remark: listed apart in the source
T4 construct: whole, on cells

[6] = target: T5, human GPC3-His protein (human, UniProt P51654 25-559, limits assumed); test: SPR, antibody captured on Protein A chip, human GPC3-His injected, 1:1 Langmuir model;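 further: flow cell at 25 °C, antigen injected for 240 s at five twofold dilutions starting at 200 nM, dissociation followed up to 600 s, double-referenced sensorgrams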
T5 construct: also called human GPC3 protein; not shown: His tag

Binder	Kd [1]	koff [1]	kon [1]	OD450 at 0.0001 nM [2]	OD450 at 0.001 nM [2]	OD450 at 0.01 nM [2]	OD450 at 0.1 nM [2]	OD450 at 1 nM [2]	OD450 at 10 nM [2]	OD450 at 100 nM [2]	EC50 [3]	Max MFI [3]	Kd [4]	koff [4]	kon [4]	EC50 [5]	Max MFI [5]	Kd [6]	koff [6]	kon [6]
F4.26.1 (antibody, human IgG1, kappa, V domains shown, Human-murine chimeric antibody) VH: QVQLKQSGPGLVQPSQSLSITCTVSGFSLTSYGVHWVRQSPGKGLEWLGVIWSSGNTDYNAVLISRLSIKKDDSKSQVFFKMNSPQVDDSAIYYCGRNGGWLLRGFMDFWGQGTSVTVSS VL: DVVMTQTPLSLPVSLGDQASISCRSSQSLLHSNGNTYLHWYLQRSGQSPNLLIYKVSNRFSGVPDRFSGGGSGTDFTLKISRVEAEDLGIYFCSQSTHVPWTFGGGTKLEIKR	1.38 nM	0.000587 s⁻¹	425000 M⁻¹ s⁻¹	0.27 OD450	0.07 OD450	0.18 OD450	0.89 OD450	1.38 OD450	1.88 OD450	1.5 OD450	1.21 nM	50500 MFI	2.34 nM	0.000461 s⁻¹	197000 M⁻¹ s⁻¹					
hAb001H1L1b (antibody, human IgG1, V domains shown, Humanized F2.169.2) VH: EVQLVESGGGLVQPGGSLRLSCAASGFSFNTNAMNWVRQAPGKGLEWVGRIRSKSNNYATYYADSVKDRFTISRDDSKNSLYLQMNSLKTEDTAVYYCVRDGYYVLFAYWGQGTLVTVSS VL: DIVMTQTPLSLPVTPGEPASISCRFSQSIVNSNANTYLEWFLQKPGQSPQLLIYKVSNRFSGVPDRFSGSGSGTDFTLKISRVEAEDVGVYYCFQGSHVPFTFGQGTKLEIK																1.54 nM	32900 MFI	19.8 nM	0.937 s⁻¹	4.74e+07 M⁻¹ s⁻¹
hAb003LH2L1b (antibody, human IgG1, V domains shown, Humanized F2.154.1) VH: EVQLVQSGAEVKKPGSSVKVSCKASGYRFTDYEMHWVRQAPGQGLEWMGTIDPETGNTAYTQKFMDRVTITADKSTSTAYMELSSLRSEDTAVYYCTRGYSFTYWGQGTLVTVSS VL: DIVMTQTPLSLPVTPGEPASISCRSSQNIVHSNRNTYLQWYLQKPGQSPQLLIFKVSNRFSGVPDRFSGSGSGTDFTLKISRVEAEDVGVYYCFQGSHVPFTFGQGTKLEIK																0.793 nM	31100 MFI	2.08 nM	0.000501 s⁻¹	240000 M⁻¹ s⁻¹
hAb003LH1L1 (antibody, human IgG1, V domains shown, Humanized F2.154.1) VH: EVQLVQSGAEVKKPGSSVKVSCKASGYTFSDYEMHWVRQAPGQGLEWMGTIDPETGNTAYTQKFMDRVTITADKSTSTAYMELSSLRSEDTAVYYCTRGYSFTYWGQGTLVTVSS VL: DIVMTQTPLSLPVTPGEPASISCRSSQNIVHSNGNTYLQWYLQKPGQSPQLLIFKVSNRFSGVPDRFSGSGSGTDFTLKISRVEAEDVGVYYCFQGSHVPFTFGQGTKLEIK																1.56 nM	28200 MFI	1.93 nM	0.000453 s⁻¹	234000 M⁻¹ s⁻¹
hAb001H1aL1 (antibody, human IgG1, V domains shown, Humanized F2.169.2) VH: EVQLVESGGGLVQPGGSLRLSCAASGFSFNTNAMNWVRQAPGKGLEWVGRIRSKSNNYATYYADSVKGRFTISRDDSKNSLYLQMNSLKTEDTAVYYCVRDGYYVLFAYWGQGTLVTVSS VL: DIVMTQTPLSLPVTPGEPASISCRFSQSIVNSNGNTYLEWFLQKPGQSPQLLIYKVSNRFSGVPDRFSGSGSGTDFTLKISRVEAEDVGVYYCFQGSHVPFTFGQGTKLEIK																1 nM	34000 MFI	27 nM	0.0701 s⁻¹	2.6e+06 M⁻¹ s⁻¹
F4.21.16 (antibody, human IgG1, kappa, V domains shown, Human-murine chimeric antibody) VH: DVQLQESGPGLVKPSQSLSLTCSVTGYSITSGYYWNWIRQFPGNKLEWMGYISYDVTVNYNPSLKNRISITRDTSKNQFFLKLNSVTTEDTATYYCATITSVASMDHWGQGTSVTVSS VL: DILMTQTPLSLPVSLGDQASISCRSSQNIVHRNGNTYLEWYLQKPGQSPKLLLYKVSNRFSGVPDRFSGSGSGTDFTLKISRVEAEDLGIYYCFQGSHFPFTFGSGTKLEIKR	7.81 nM	0.000303 s⁻¹	38800 M⁻¹ s⁻¹	0.04 OD450	0.06 OD450	0.05 OD450	0.1 OD450	1.41 OD450	1.65 OD450	1.08 OD450	3.25 nM	50900 MFI	6.58 nM	0.000267 s⁻¹	40600 M⁻¹ s⁻¹					
F4.18.4 (antibody, human IgG1, kappa, V domains shown, Human-murine chimeric antibody) VH: QVQLHQSGAEMAKPGASVNLSCKTSGFTFTDYGISWVKQRTRQGLEWIGDIYPRHINIYYNEKFKDKATLTADRSSSTAYMELRSMTSEDSAVYFCARRGTTGRGALDYWGQGTSLTVSS VL: DILLTQSPAILSVSPGERVSFSCRASQSIGTSIHWYQQRTNGSPRLLIKYAFESISGIPSRFGGSGSRTDFTLTINSVESEDIADYYCQQTYNWPYTFGGGTKLEIKR	4.65 nM	0.000552 s⁻¹	119000 M⁻¹ s⁻¹	0.14 OD450	0.12 OD450	0.14 OD450	0.85 OD450	0.77 OD450	1.32 OD450	1.9 OD450	0.89 nM	52600 MFI	5.08 nM	0.000443 s⁻¹	87100 M⁻¹ s⁻¹					

More lines, now with the values ahead:

Kd [1]	koff [1]	kon [1]	OD450 at 0.0001 nM [2]	OD450 at 0.001 nM [2]	OD450 at 0.01 nM [2]	OD450 at 0.1 nM [2]	OD450 at 1 nM [2]	OD450 at 10 nM [2]	OD450 at 100 nM [2]	EC50 [3]	Max MFI [3]	Kd [4]	koff [4]	kon [4]	EC50 [5]	Max MFI [5]	Kd [6]	koff [6]	kon [6]	Binder
31.4 nM	0.00264 s⁻¹	84000 M⁻¹ s⁻¹	0.05 OD450	0.08 OD450	0.36 OD450	1.55 OD450	2.34 OD450	2.4 OD450	2.44 OD450	1.1 nM	44100 MFI	32.3 nM	0.00156 s⁻¹	48400 M⁻¹ s⁻¹						F4.13.7 (antibody, human IgG1, kappa, V domains shown, Human-murine chimeric antibody) VH: QVQLQQPGAELVKPGASVKLSCKASGYTFTNNWVHWVKQRPGQGLEWTGMIHPDSGSTIYNEKFQSKATLTVDKSSSTAYMQLSSLTSEDSAVYYCARGYYDSSSYYAMDYWGQGTSVTVSS VL: NIQMTQTTSSLSASLGDRVTISCSASQGIFNYLNWYQQKPDGTVKLLIYYTSSLHSGVPSRFSGSGSGTDYSLTISNLEPEDIATYYCQQYSKLPWTFGGGTKLEIKR
															1.46 nM	28400 MFI	1.68 nM	0.000415 s⁻¹	246000 M⁻¹ s⁻¹	hAb003LH1L1b (antibody, human IgG1, V domains shown, Humanized F2.154.1) VH: EVQLVQSGAEVKKPGSSVKVSCKASGYTFSDYEMHWVRQAPGQGLEWMGTIDPETGNTAYTQKFMDRVTITADKSTSTAYMELSSLRSEDTAVYYCTRGYSFTYWGQGTLVTVSS VL: DIVMTQTPLSLPVTPGEPASISCRSSQNIVHSNRNTYLQWYLQKPGQSPQLLIFKVSNRFSGVPDRFSGSGSGTDFTLKISRVEAEDVGVYYCFQGSHVPFTFGQGTKLEIK
															0.96 nM	32600 MFI	109 nM	0.0167 s⁻¹	153000 M⁻¹ s⁻¹	hAb001H1aL1b (antibody, human IgG1, V domains shown, Humanized F2.169.2) VH: EVQLVESGGGLVQPGGSLRLSCAASGFSFNTNAMNWVRQAPGKGLEWVGRIRSKSNNYATYYADSVKGRFTISRDDSKNSLYLQMNSLKTEDTAVYYCVRDGYYVLFAYWGQGTLVTVSS VL: DIVMTQTPLSLPVTPGEPASISCRFSQSIVNSNANTYLEWFLQKPGQSPQLLIYKVSNRFSGVPDRFSGSGSGTDFTLKISRVEAEDVGVYYCFQGSHVPFTFGQGTKLEIK
															1.41 nM	33100 MFI	19.2 nM	0.0101 s⁻¹	526000 M⁻¹ s⁻¹	hAb001H2L1b (antibody, human IgG1, V domains shown, Humanized F2.169.2) VH: EVQLVESGGGLVQPGGSLRLSCAASGFSFNTNAMNWVRQAPGKGLEWVGRIRSKSNNYATYYADSVKDRFTISRDDSKSSLYLQMNSLKTEDTAVYYCVRDGYYVLFAYWGQGTLVTVSS VL: DIVMTQTPLSLPVTPGEPASISCRFSQSIVNSNANTYLEWFLQKPGQSPQLLIYKVSNRFSGVPDRFSGSGSGTDFTLKISRVEAEDVGVYYCFQGSHVPFTFGQGTKLEIK
